Experimental data: article PMC9330763

Target: SAd36 fiber-T4 fibritin-SpT (simian (chimpanzee) adenovirus species E serotype 36 (SAd36) | bacteriophage T4)
Test: SDS-PAGE without boiling

In the case of SAd36 fiber-T4 fibritin-SpT, the stoichiometry N was 3.
